Results reported in patent US20160185865A1.

Target: human CC chemokine receptor 4 (CCR4) (human) (UniProt P51679)
Assay: binding curve of FIG. 20B; cells not given

Chain of human CC chemokine receptor 4 (CCR4) (human) (P51679 whole entry): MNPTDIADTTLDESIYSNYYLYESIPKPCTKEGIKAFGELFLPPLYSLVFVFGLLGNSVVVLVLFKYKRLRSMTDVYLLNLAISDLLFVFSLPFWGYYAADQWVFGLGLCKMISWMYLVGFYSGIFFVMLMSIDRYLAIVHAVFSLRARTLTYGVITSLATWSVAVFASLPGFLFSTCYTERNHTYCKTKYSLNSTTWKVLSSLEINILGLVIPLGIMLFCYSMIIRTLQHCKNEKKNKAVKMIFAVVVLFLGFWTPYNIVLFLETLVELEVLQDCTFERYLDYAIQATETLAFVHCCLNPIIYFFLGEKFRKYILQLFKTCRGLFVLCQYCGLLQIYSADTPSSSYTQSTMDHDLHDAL

B1: KM2760 (anti-CCR4 chimeric antibody) (antibody, from another filing, V domains shown)
VH: EVQLVESGGDLMKPGGSLKISCAASGFIFSNYGMSWVRQTPDMRLEWVATISSASTYSYYPDSVKGRFTISRDNAENSLYLQMNSLRSEDTGIYYCGRHSDGNFAFGYWGRGTLVTVSA
VL: DVLMTQTPLSLPVSLGDQASISCRSSRNIVHINGDTYLEWYLQRPGQSPKLLIYKVSNRFSGVPDRFSGSGSGTDFTLKISRVEAEDLGVYYCFQGSLLPWTFGGGTRLEIRR
EC50: 5.07 nM
